# Source: IntAct's records for PubMed 17158164
# B1: TATA-box-binding protein (Homo sapiens), P20226 (parent)
# chain: MDQNNSLPPYAQGLASPQGAMTPGIPIFSPMMPYGTGLTPQPIQNTNSLSILEEQQRQQQQQQQQQQQQQQQQQQQQQQQQQQQQQQQQQQQQQQAVAAAAVQQSTSQQATQGTSGQAPQLFHSQTLTTAPLPGTTPLYPSPMTPMTPITPATPASESSGIVPQLQNIVSTVNLGCKLDLKTIALRARNAEYNPKRFAAVIMRIREPRTTALIFSSGKMVCTGAKSEEQSRLAARKYARVVQKLGFPAKFLDFKIQNMVGSCDVKFPIRLEGLVLTHQQFSSYEPELFPGLIYRMIKPRIVLLIFVSGKVVLTGAKVRAEIYEAFENIYPILKGFRKTT
# partner: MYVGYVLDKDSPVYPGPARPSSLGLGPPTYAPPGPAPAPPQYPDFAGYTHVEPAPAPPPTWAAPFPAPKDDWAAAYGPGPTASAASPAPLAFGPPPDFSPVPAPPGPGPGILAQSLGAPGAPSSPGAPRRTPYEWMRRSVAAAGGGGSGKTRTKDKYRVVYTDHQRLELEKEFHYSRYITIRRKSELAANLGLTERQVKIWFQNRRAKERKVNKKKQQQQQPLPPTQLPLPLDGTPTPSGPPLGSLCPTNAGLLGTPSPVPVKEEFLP
# Variants of: B1
# Conditions: with cdx1_mouse Cdx1, P18111
row,effect of a mutation on the interaction,Variant
1,with no effect,I292F;V301T;L303V
